Measured values published in the domain aggregation screens of Martell et al. (2025).

Assay: soluble fraction after stress (log2 fold change); higher = more stays soluble; pooled small domains, quantitative proteomics
Conditions: stress: pH 4
Summary of the method: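 Small protein domains from pooled custom libraries were exposed to pH 4, then quantified with high-throughput quantitative proteomics. The fold change in how much of each domain remains soluble is read as aggregation propensity. It is given as log2, with higher values meaning more stayed soluble.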

Sequence	soluble fraction (log2)
HMFIVTDQMQRVLDYITEKEKATNNDLEELLGVKSTRIYTITRKLIQHNLIIPVGKGKNKYYIL	-0.724
HMVTTADIILEFYSRNPNATLTQAAQHVARATGTTYSRQAISAQLKRLEVAGLVERNGHVTV	-0.47
HMPSLGADIRALRKSRKMTLVALADALGRSVGWLSQVERDKSHATIADLGRMAEVLDVSISSFL	-0.209
HMQVSEQVQRLLDALENDTLTTKELMDRLGLKHRPTFRKNYLLPSMKLGLVEMTIPDKPNSSRQKYRRRQ	0.00707
HMINPASEKQLSFANSLIAKKEGGTETLNHYLHNRKVSSLEELDRKDVSEIINALKFAKEVT	0.0908
HMADWTETELAALRRAYASGTTRVSYDGKSVDYGSAEDLLSRIRTLQGAASDVAADAVAAVDA	-0.153
HMRKIFPFNPNFITDQRGYFLGMSTSEIDRLHHFRAANKWIQSAQEFQVVTKVSNAWLSEFSPYFNFP	0.298
HMKVSNWYFNGAPSATTPPTSQWTTEKDKKAHIGDTFTSLDKSPSPNAGKSWRYTPSYTWEEIV	0.0965
HMSPTEQEKIGLFIKKLREEKNLTQEAFASLLKTSQSAVARIESGNQNITIEQLMKIGEVLNHNIVSI	-0.215
HMGEPVNSPMPGTILRVEVTQGAAVKEGQLLVVLEAMKMENEILAPKDGTVAQVVVQKGSHVETGSPLIVL	-0.429
HMGSDQEAAMARQDRLSTLVDYVVERGSVHVDDIVADLGVSPATVRRDLDALAAQQLIIRTRGGATANHT	-0.552
HMIEKGSDALEKELRKNNLSINEFLTNKNIDIILDELKLKDIDDLYVNIALGKYTPNQIIKIVNK	-0.61
HMEAELNSLVKTYENMKPKAAAQVFEELDMDVLLDVVERMKEKKLAPILAQVTPTRAKEITYELTQRR	-0.0962
HMYITGAVIRKLREKNNITQLQLAERLRVSDKTISKWETGKGYPDITLLEPIAKTFSVSVTELISGDI	-0.84
HMLSDSDTLRDLYLSEQIWNVGDLIRVKGKNDDTHPSWEIIRRGTNYITAIDENYKSHKVWLHDIDI	-1.4
HMWNPVLVVRGDFPKDLATTLLKMIFAQKEALNPHILFQNLLRTDNITFRESYPYHSASKTMFRF	-0.421
HMHQAADFAGFITFNKDGVEQFSFGKYKNQTVVSVLEKDPGYYSWIQNADFPLYTKKILTAIRLAM	-0.0054
HMQGEVPYSQFLTEVDRGDVQSVVIEGNNISGFYKNSSTAFTVVAPDDPKLVERLMEQGVEVKARPV	≥ 0.43
HMDVQPHIYLRKLDQFWPADLHSLILYTLDGRRLWSADSGNIPALPHRASSLVILEATWDNGQRTRRKQFL	-0.116
HMSEEIKVPNFVGSTFEKAQALAQETGLEIARGEDVYSPDQEEGKITSQNPTADSVVSPGKLITVYVSKG	0.0365
HMAEWLLVQLTNGNWFYGEVIEKTDATIVLNTDILGKVSIQKLDIRRSISGPLTAAKRQEIEDSERAKD	-0.341
HMVDVNLLKYYVMESGKSLTDVAAAIGVTPATLHRKMSGESDFYRKEMQDIASYLGLDRDTIDRIFF	-0.892
HMQPDPAFVAWVDANPWYKENRTLRALVHDYAEEVKRQEPALIGTAFLDRVKQLVQSEHPELFD	-0.502
HMISKQQRQALILDIIQKQSITSQEALLTELQRHHVMTTQTTVSRDIRALGIVRIKDVNGELSYQQLQ	-0.0545
HMNSLQLGSRGPTVSALQAKLNTMLVPSPRLVADGSFGPKTAQAVKAFQQMKRLVADGVVGPKTAAALGLS	0.281
HMNLGDLYVIMEIAGQRDDVSARLMNREGQTFLVKTGTKLKSGDVVKEITPTYIKTDHDGEEAFLYF	-1.17
HMGQELTPVERTALDIAARDGKVSTRILAQEAGIGLRTASKTLAALAERGLLTWHGTSRRDPQQHYTS	0.154
HMLAAGTPLTVVTESSNLNIRQEPSTEAAVVGKAAKGEIVTLVEQTSGEWWKVSTKDGEEGYAYSRYL	-0.809

Sequence	soluble fraction (log2)
HMNINVRNTGIKAVENNIINLSSDQRTFTWASNDRKLITVPFDENPYSALAAWFKTDEGIEVYQTIEKKL	-0.294
HMDLSQTVQAKALARVNVREGAGTHFKSLGKLKKGELLPVFRVGNSWASIWWKGRVAYVHTDYLRFESA	-0.153
HMLGDAWSMLILRDAHSGFSRFDQFRKSLGIAPTMLTKRLSVLVDEGLLEKRQYSEHPPREEYVLTQAGQD	0.149
HMDKSNEVLMNHYRKQEINQAKKRLEEEKMSIIQVLQLTNKEVITTDELLEALYISKEQLLDEIINTTQ	-1.02
HMLSVLKNVDVNSLSDDKIKTYWQQIQKSGYTLDEVEVLAEAQGISPLKIAAFKRRVQSLQQSLQT	-0.018
HMQNYLEVLRLHELGMGQRKIAQQVHTSRDTIRKIIAIAENQGLNYSNLIGKTDNELSKVFG	0.0958
HMEPPAPAPDIPYPSRVTVRREVDGWPHYYGTWTRTPPVLGYEGIWLVGVSLDGKVQFVPVDDVTIA	-0.555
HMHLIPRESTYEIDGRRFVVDSVNLDFGKVSLQDITFRNATGFPIFRSESIEFMRRLVEISEAQRIAEL	-0.114
HMSFVDFYGLFTTELQRLAELPVTADELIKNTGLHKSQLTDWLKRAEEDGVVKKLNRPVRYQVEKK	-0.989
HMAKNYYEILGLKSDATLPEIKKAFKKLSKKFHPDKNRDDDGYFESMFKSINEAYQVLIDEDKRATFDSHH	0.166
HMVIVGGDVIVHYVDTEGKKISDDVVKSGNVGEDYSTDQKTILGYRFKEVQGNTSGKFTDKTQVVTYIYT	0.179
HMKNTADRVYENLFHMLVSGDYAPGDRIPSEHELKERFNVSRNTIRAALNRMNALGIIETRQGDGTYLKG	-0.147
HMPSSQQVMRRLATVGPDKTLEELQRQHDAHLRKYGEFNDFRGERQQMRQEMERIKEAKQGTGPYAHLMG	-0.0742
HMEGDKEIPNVIGKSINDAKKILEQAGLKLGEVKKVNDSSVAKNVVLSTNPNAGTKVSAGDAVSITVAEG	0.278
HMSFNNHYEILQVQPSADREVIEAAAKALLKKHHPDLGGRNTITSHIVQAKKVLTDTSQRADFDARLRERL	0.165
HMDQVLHQLVEVLRRSEIRISPAETLDAFKVLRNVGIDNKSLLREALALTLAKSIHEKIIFYETFDEFFT	-1.08
HMFAADIGVGIVDADSLRVRSEPSTGAPIVTSLLRGTQVTVQEKLDGWYRITYNDVSGFVSAEYLIFTADE	-0.297
HMSRIDRKGLTSQIVNHLSKNPGKNFTLKQFFRNLKLNTHPLKMLAVDVLNKLLDTNFITRNEDGEFFLKA	-0.123
HMTKGVWHTVKKGENLYRISLYYEVPQQEIKKANKIETENIVVGQKLFIPNTTKKSPIFALTP	-0.0478
HMSENEVQAKVKEIVDRYAGDKSALIAILQDVQDEYRYLPKEALVSIQQQMNIPLSRVYEVATFYDAFS	-0.862
HMDVEMLIDKYQLNDSEAEVLRFMKKNRQSLKTIGIRDVAKATYVSTATIINMAKKIGYSGYSELVFALGN	-0.319
HMRIWTISDLYKNVEDKKVSLAVFSEDNDSNKVNVLDINGEEHSVNLLKADLPTLVDLFRKNDVRFAVRSN	0.259
HMNNWYESSIKSLVEEYFREHGFSVVFDSSEFWDVFIEKYHKQIPSSQIALFDQVAAEARSYAFNKK	-0.545
HMGDWEKALAQFAAHRLANGSTAFLDEMYPIFERILLQAALNKTGGRKIEAAELLGWGRNTLTRKLKELGF	-1.01
HMSNYPYLLRTYEGKLAVFTDDLVQPDLVFDVYVRTLPELDQQQLSRGIRVKTYDELTSMIEDYI	-0.956
HMLTANPEEVVNRLTSAGEVGVRPLLDVDDPINAISTLLAIREDVYKQFAQFDTVGKSPSEIAHEIDDFL	-0.162
HMSENEIDELRRRFAREAMALMERKGEEVSRTRLAAELSVARARIDAVFPEESDLLEAVTAEWFA	-0.799
